Data set [1] addresses T1, NanR (Escherichia coli K12) (UniProt P0A8W0).
T1 sequence: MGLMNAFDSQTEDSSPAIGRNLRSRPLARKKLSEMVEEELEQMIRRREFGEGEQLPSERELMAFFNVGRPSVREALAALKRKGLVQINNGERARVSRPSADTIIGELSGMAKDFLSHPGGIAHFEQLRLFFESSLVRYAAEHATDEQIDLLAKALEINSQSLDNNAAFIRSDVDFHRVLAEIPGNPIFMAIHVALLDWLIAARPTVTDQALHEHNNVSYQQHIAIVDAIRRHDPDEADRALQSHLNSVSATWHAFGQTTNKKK
The data set is described as follows: EMSA. Conditions: 10 nM DNA, EMSA: 10 mM MOPS pH 7.5, 50 mM KCl, 5 mM MgCl2, 10% glycerol, 30 min at room temperature, gel at 4 C, fluorescence AUC: 20 mM Tris-HCl pH 8.0, 150 mM NaCl ….

In data set [2] the target is T1, NanR (Escherichia coli K12). Description: fluorescence-detected AUC. Conditions: 80 nM DNA, EMSA: 10 mM MOPS pH 7.5, 50 mM KCl, 5 mM MgCl2, 10% glycerol, 30 min at room temperature, gel at 4 C, fluorescence AUC: 20 mM Tris-HCl pH 8.0, 150 mM NaCl ….

pKd: −log10 of the molar value.

As for (GGTATA)2-repeat, FAM, in data set [1] (Hill n = 2.8 ± 0.3, two complexes), the pKd was 7.60.

With (GGTATA)3-repeat operator, FAM, the pKd in data set [1] (Hill n = 2.0 ± 0.2, apparent KD) was 7.41; in data set [2] (20 mM Neu5Ac, Hill n = 2.0 ± 0.6), 6.24; in data set [2] (Hill n = 1.9 ± 0.2, no Neu5Ac), 7.70.

For the origin of these results see publication PMC8012715, “Mechanism of NanR gene repression and allosteric induction of bacterial sialic acid metabolism” (Nature Communications, 2021).
